Laboratory results published in article PMC6644000 (Cell, 2019).

Target: T1, REV1 C-terminal domain (CTD) (mouse, UniProt Q920Q2 1150-1249)
T1 sequence (looked up): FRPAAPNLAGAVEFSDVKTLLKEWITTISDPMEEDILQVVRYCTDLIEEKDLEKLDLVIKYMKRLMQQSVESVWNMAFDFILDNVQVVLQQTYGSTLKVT
Assay: crystal structure

B1: POL κ RIR (REV1-interacting region) peptide (domain or fragment, mouse, UniProt Q9QUG2 564-577, looked up)
chain: KSFFDKKRSERISN
Does B1 bind?
Result: binds
